Positions count from the first letter of the chain named.

Sequences and labels used below:
B1: epitope (FLAG)-tagged form of the β-conglycinin β subunit encoded by pMON39328 (other)
chain: MDYKDDDDKLKVREDENNPFYLRSSNSFQTLFENQNGRIRLLQRFNKRSPQLENLRDYRIVQFQSKPNTILLPHHADADFLLFVLSGRAILTLVNNDDRDSYNLHPGDAQRIPAGTTYYLVNPHDHQNLKIIKLAIPVNKPGRYDDFFLSSTQAQQSYLQGFSHNILETSFHSEFEEINRVLLGEEEEQRQQEGVIVELSKEQIRQLSRRAKSSSRKTISSEDEPFNLRSRNPIYSNNFGKFFEITPEKTPQLRDLDIFLSSVDINEGALLLPHFNSKAIVILVINEGDANIELVGIKEQQQKQKQEEEPLEVQRYRAELSEDDVFVIPAAYPFVVNATSNLNFLAFGINAENNQRNFLAGEKDNVVRQIERQVQELAFPGSAQDVERLLKKQRESYFVDAQPQQKEEGSKGRKGPFPSILGALY
notes: Expressed in E. coli. pMON39335 encodes the same protein (silent change TTA to CTT at Leu24); also called pMON39335
B2: mature form (plus additional methionine encoded by start codon) of the β-conglycinin β subunit encoded by pMON39329 (other)
chain: MLKVREDENNPFYLRSSNSFQTLFENQNGRIRLLQRFNKRSPQLENLRDYRIVQFQSKPNTILLPHHADADFLLFVLSGRAILTLVNNDDRDSYNLHPGDAQRIPAGTTYYLVNPHDHQNLKIIKLAIPVNKPGRYDDFFLSSTQAQQSYLQGFSHNILETSFHSEFEEINRVLLGEEEEQRQQEGVIVELSKEQIRQLSRRAKSSSRKTISSEDEPFNLRSRNPIYSNNFGKFFEITPEKTPQLRDLDIFLSSVDINEGALLLPHFNSKAIVILVINEGDANIELVGIKEQQQKQKQEEEPLEVQRYRAELSEDDVFVIPAAYPFVVNATSNLNFLAFGINAENNQRNFLAGEKDNVVRQIERQVQELAFPGSAQDVERLLKKQRESYFVDAQPQQKEEGSKGRKGPFPSILGALY
notes: expressed in E. coli; also called native form
B3: β-conglycinin β subunit mutant 39335-1 (other)
chain: MDYKDDDDKLKVREDENNPFYLRSSNSFQTLFENQNGRIRLIQRFNKRSPQLENLRDYRIVQFQSKPNTIILPHHADADFLLFVLSGRAILTLVNNDDRDSYILHPGDAQRIPAGTTYYLVNPHDHQNLKIIILAIPVNKPGRYDDFFLSSTQAQQSYLQGFSHNILETSFHSEFEEINRVLLGEEEEQRQQEGIIVELSKEQIRQLSRRAKSSSRKTISSEDEPFNLRSRNPIYSNNFGKIFEITPEKIIQLRDLDIFLSSVDINEGALLLPHFNSKAIVIIIINEGDANIEIVGIKEQQQKQKQEEEILEVQRYRAELSEDDVFVIPAAYPIVVNATSNINFLAFGINAENIQRNFLAGEKDNVVRQIERQVQELAFPGSAQDVERLLKKQRESYIVDAQPQQKEEGSKGRKGPFPSILGALY
B4: β-conglycinin β subunit mutant 39335-2 (other)
chain: B3 chain with R59I, L81I, I242F, I283L, I284V, I294L, I310P
B5: β-conglycinin β subunit mutant 39335-71 (other)
chain: MDYKDDDDKLKVREDENNPFYLRSSNSFQTLFENQNGRIRLIQRFNKRSPQIENLRDYRIVQFQSKPNTIILPHHADADFIIIILSGRAILTLVNNDDRDSYNIHPGDAQRIPAGTTYYIINPHDHQNLKIIKIAIPVNKPGRYDDFFLSSTQAQQSYLQGFSHNILETSFHSEFEEINRVLLGEEEEQRQQEGVIVELSKEQIRQLSRRAKSSSRKTISSEDEPFNLRSRNPIYSNNFGKFFEITPEKTPQIRDLDIFLSSVDINEGALLLPHFNSKAIVILVINEGDANIELVGIKEQQQKQKQEEEPLEVQRYRAELSEDDIIVIPAAYPFVVNATSNLNIIAIGINAENNQRNFLAGEKDNVVRQIERQVQELAFPGSAQDVERLLKKQRESYFVDAQPQQKEEGSKGRKGPFPSILGALY
B6: β-conglycinin β subunit mutant 39335-74 (other)
chain: B5 chain with I52L, I253L, I325V, I326F, I344F, I345L, I347F, F398I
B7: β-conglycinin β subunit mutant 39335-3 (other)
chain: B1 chain with N18I, L42I, R59I, H74I, P137I, V195I, P233I, N286I
B8: β-conglycinin β subunit mutant 39335-6 (other)
chain: MDYKDDDDKLKVREDENIPFYLRSSNSFQTLFENQNGRIRLIQRFNKRSPQLENLRDYIIVQFQSKPNTILLPIHADADFLLFVLSGRAILTLVNNDDRDSYNLHPGIAQRIPAGTTYYLVNIHDHQNLKIIKLAIIVNKPGRYDDFFLSSTQAQQSYLQGFSHNILETSFHSEFEEINRVLLGEEEEQRQQEGIIVELSKEQIRQLSRRAKSSSRKTISSEDEPFNLRSRNIIYSNNFGKFFEITPEKIIQLRDLDIFLSSVDINEGALLLPHFNSKAIVILVIIEGDANIELVGIKEQQQKQKQEEEPLEVQRYRAELSEDDVFVIPAAYPFVVNATSNLNFLAFGINAENNQRNFLAGEKDNVVRQIERQVQELAFPGSAQDVERLLKKQRESYFVDAQPQQKEEGSKGRKGPFPSILGALY
B9: β-conglycinin β subunit mutant 39328-63 (other)
chain: B1 chain with Y21W, Y58W, Y102W, P123W, Y144W, Y158W, P251W, Y316W, Y397W
B10: β-conglycinin β subunit mutant 39328-27 (other)
chain: B1 chain with Y21W, Y58W, H74W, Y102W, Y118W, Y119W
B11: β-conglycinin β subunit mutant 39328-65 (other)
chain: B1 chain with Y21W, Y58W, Y102W, P123W, Y144W, Y158W, Y316W, Y332W, Y397W
B12: β-conglycinin β subunit mutant 39328-59 (other)
chain: B1 chain with Y21W, Y58W, Y102W, Y119W, P123W, Y144W, Y158W, Y316W, Y397W
B13: β-conglycinin β subunit mutant 39328-36 (other)
chain: B1 chain with Y58W, Y102W, P123W, Y144W, Y158W, P225W, Y235W, P251W, Y316W

The first series concerns the molecule itself. In words: sucrose gradient sedimentation, anti-FLAG western (self-assembly). The protocol:
(§1) To determine if the recombinant forms of β subunit expressed in E. coli from pMON39328 and pMON39329 could self-assemble to form trimers, aliquots of the soluble protein fraction from E. coli lysates are layered onto 12 ml of a 5-25% sucrose density gradient and centrifuged at 36,000 rpm for 17.5 hours at 20° C. (Sorvall TH-641 rotor; Sorvall Ultra Pro 80 ultracentrifuge). Following centrifugation, the gradient is divided into fractions using a Labconco Autodensi-Flow instrument (Labconco, Kansas City, Mo.), and each fraction is analyzed by western blot analysis using Anti-FLAG M2 antibody (Stratagene Corporation, LaJolla, Calif.) to determine which fractions contained β-conglycinin β subunit. 7S and […] soy protein fractions, as well as ovalbumin (45 kD) and aldolase (158 kD), are run as size markers on separate gradients.
In the case of B1, the binding result is given as “binds”.
In the case of B2, the binding result is recorded as “binds”.

Another series concerns the molecule itself. The series is described as above. The source holds these as a separate data set.
Take B3: the binding result is recorded as “no binding”.
On the same count and under the same terms, as for B4, the entry is “no binding”; as for B5, “no binding”; as for B6, “no binding”.
For B7, the binding result is “no binding”.
Consider B8, for which the binding result is given as “no binding”.

Another series concerns the molecule itself. The description is as above. The source holds these as a separate data set. As to the method:
as §1
This example sets forth confirmation of the protein structure from the expression of modified β-conglycinin β subunit clones. The assembly properties of the following modified forms of the β subunit (indicated by mutant ID number), each containing a different tryptophan substitution, are determined as described in Example 6. Western blot analysis of sucrose gradient fractions is carried out as in Example 6 using anti-FLAG antibody.
As for B9, the binding result was “no binding”.
In the case of B10, the binding result is “no binding”.
As for B11, the binding result is listed as “no binding”.
In the case of B12, the binding result is on record as “no binding”.
As for B13, the binding result was “no binding”.
